Source: the Human Domainome abundance scans (Beltran et al. 2025)
± gives the uncertainty stated by the source.

B1: Peripheral plasma membrane protein CASK, residues 488 to 569; numbered along this chain, O14936 (parent)
chain: VRLVQFQKNTDEPMGITLKMNELNHCIVARIMHGGMIHRQGTLHVGDEIREINGISVANQTVEQLQKMLREMRGSITFKIVP

Variants of: B1
Assay: abundance fitness (aPCA) (normalised: wild type 0, dead -1); higher = more abundant; growth selection in yeast, the domain comes from the species named
Details: Homo sapiens

In order of falling abundance fitness:
1. VRLVQFQKNTDEPMGITLKMNELNHCIVARIMHGGMIHRQGTLHVGDEIREINGISVANQTVEQLQKMLREMRGSITFAIVP [K79A]  0.071 ± 0.044
2. VRLVQFQKNTDEPMGITLKMNELNHCIVARIMHGGMIHRQGTLHVGDEIREINGISVANQTVEQLQKMLREMRGSITFSIVP [K79S]  0.014 ± 0.033
3. VRLVQFQKNTDEPMGITLKMNELNHCIVARIMHGGMIHRQGTLHVGDEIREINGISVANQTVEQLQKMLREMRGSITFHIVP [K79H]  -0.006 ± 0.039
4. VRLVQFQKNTDEPMGITLKMNELNHCIVARIMHGGMIHRQGTLHVGDEIREINGISVANQTVEQLQKMLREMRGSVTFKIVP [I76V]  -0.01 ± 0.024
5. VRLVQFQKNTDEPMGITLKMNELNHCIVARIMHGGMIHRQGTLHVGDEIREINGISVANQTVEQLQKMLREMRGSITFQIVP [K79Q]  -0.016 ± 0.037
6. VRLVQFQKNTDEPMGITLKMNELNHCIVARIMHGGMIHRQGTLHVGDEIREINGISVANQTVEQLQKMLREMRGSIFFKIVP [T77F]  -0.019 ± 0.059
7. VRLVQFQKNTDEPMGITLKMNELNHCIVARIMHGGMIHRQGTLHVGDEIREINGISVANQTVEQLQKMLREMRGSIAFKIVP [T77A]  -0.028 ± 0.039
8. VRLVQFQKNTDEPMGITLKMNELNHCIVARIMHGGMIHRQGTLHVGDEIREINGISVANQTVEQLQKMLREMRGSITFGIVP [K79G]  -0.044 ± 0.045
9. VRLVQFQKNTDEPMGITLKMNELNHCIVARIMHGGMIHRQGTLHVGDEIREINGISVANQTVEQLQKMLREMRGSITFCIVP [K79C]  -0.053 ± 0.054
10. VRLVQFQKNTDEPMGITLKMNELNHCIVARIMHGGMIHRQGTLHVGDEIREINGISVANQTVEQLQKMLREMRGSITFTIVP [K79T]  -0.06 ± 0.031
11. VRLVQFQKNTDEPMGITLKMNELNHCIVARIMHGGMIHRQGTLHVGDEIREINGISVANQTVEQLQKMLREMRGSITFRIVP [K79R]  -0.061 ± 0.032
12. VRLVQFQKNTDEPMGITLKMNELNHCIVARIMHGGMIHRQGTLHVGDEIREINGISVANQTVEQLQKMLREMRGSITFKCVP [I80C]  -0.074 ± 0.052
13. VRLVQFQKNTDEPMGITLKMNELNHCIVARIMHGGMIHRQGTLHVGDEIREINGISVANQTVEQLQKMLREMRGSITFLIVP [K79L]  -0.09 ± 0.029
14. VRLVQFQKNTDEPMGITLKMNELNHCIVARIMHGGMIHRQGTLHVGDEIREINGISVANQTVEQLQKMLREMRGSITFNIVP [K79N]  -0.091 ± 0.05
15. VRLVQFQKNTDEPMGITLKMNELNHCIVARIMHGGMIHRQGTLHVGDEIREINGISVANQTVEQLQKMLREMRGSITFKFVP [I80F]  -0.098 ± 0.043
16. VRLVQFQKNTDEPMGITLKMNELNHCIVARIMHGGMIHRQGTLHVGDEIREINGISVANQTVEQLQKMLREMRGSITFEIVP [K79E]  -0.113 ± 0.066
17. VRLVQFQKNTDEPMGITLKMNELNHCIVARIMHGGMIHRQGTLHVGDEIREINGISVANQTVEQLQKMLREMRGSITFMIVP [K79M]  -0.133 ± 0.044
18. VRLVQFQKNTDEPMGITLKMNELNHCIVARIMHGGMIHRQGTLHVGDEIREINGISVANQTVEQLQKMLREMRGSITFVIVP [K79V]  -0.213 ± 0.048
19. VRLVQFQKNTDEPMGITLKMNELNHCIVARIMHGGMIHRQGTLHVGDEIREINGISVANQTVEQLQKMLREMRGSWTFKIVP [I76W]  -0.236 ± 0.032
20. VRLVQFQKNTDEPMGITLKMNELNHCIVARIMHGGMIHRQGTLHVGDEIREINGISVANQTVEQLQKMLREMRGSTTFKIVP [I76T]  -0.269 ± 0.04
21. VRLVQFQKNTDEPMGITLKMNELNHCIVARIMHGGMIHRQGTLHVGDEIREINGISVANQTVEQLQKMLREMRGSITFDIVP [K79D]  -0.27 ± 0.071
22. VRLVQFQKNTDEPMGITLKMNELNHCIVARIMHGGMIHRQGTLHVGDEIREINGISVANQTVEQLQKMLREMRGSYTFKIVP [I76Y]  -0.339 ± 0.074
23. VRLVQFQKNTDEPMGITLKMNELNHCIVARIMHGGMIHRQGTLHVGDEIREINGISVANQTVEQLQKMLREMRGSITFIIVP [K79I]  -0.406 ± 0.055
24. VRLVQFQKNTDEPMGITLKMNELNHCIVARIMHGGMIHRQGTLHVGDEIREINGISVANQTVEQLQKMLREMRGSITFKGVP [I80G]  -0.408 ± 0.071
25. VRLVQFQKNTDEPMGITLKMNELNHCIVARIMHGGMIHRQGTLHVGDEIREINGISVANQTVEQLQKMLREMRGSITFYIVP [K79Y]  -0.415 ± 0.054
26. VRLVQFQKNTDEPMGITLKMNELNHCIVARIMHGGMIHRQGTLHVGDEIREINGISVANQTVEQLQKMLREMRGSSTFKIVP [I76S]  -0.448 ± 0.037
27. VRLVQFQKNTDEPMGITLKMNELNHCIVARIMHGGMIHRQGTLHVGDEIREINGISVANQTVEQLQKMLREMRGSITFFIVP [K79F]  -0.457 ± 0.056
28. VRLVQFQKNTDEPMGITLKMNELNHCIVARIMHGGMIHRQGTLHVGDEIREINGISVANQTVEQLQKMLREMRGSITFKAVP [I80A]  -0.468 ± 0.053
29. VRLVQFQKNTDEPMGITLKMNELNHCIVARIMHGGMIHRQGTLHVGDEIREINGISVANQTVEQLQKMLREMRGSITFWIVP [K79W]  -0.572 ± 0.084
30. VRLVQFQKNTDEPMGITLKMNELNHCIVARIMHGGMIHRQGTLHVGDEIREINGISVANQTVEQLQKMLREMRGSITFKEVP [I80E]  -0.883 ± 0.21
31. VRLVQFQKNTDEPMGITLKMNELNHCIVARIMHGGMIHRQGTLHVGDEIREINGISVANQTVEQLQKMLREMRGSRTFKIVP [I76R]  -1.06 ± 0.065
32. VRLVQFQKNTDEPMGITLKMNELNHCIVARIMHGGMIHRQGTLHVGDEIREINGISVANQTVEQLQKMLREMRGSITFPIVP [K79P]  -1.14 ± 0.16
33. VRLVQFQKNTDEPMGITLKMNELNHCIVARIMHGGMIHRQGTLHVGDEIREINGISVANQTVEQLQKMLREMRGSITFKDVP [I80D]  -1.32 ± 0.44
